{
  "source": "paper PMC12834914",
  "about": "“The biochemical dynamics of the glycogen phosphatase laforin directly impact brain metabolism” (The Journal of Biological Chemistry, 2025)",
  "binders": {"B1": {"name": "malin (Gal4 activation domain fusion) (natural protein, UniProt Q6VVB1 1-395, looked up)", "chain": "MAAEASESGPALHELMREAEISLLECKVCFEKFGHRQQRRPRNLSCGHVVCLACVAALAHPRTLALECPFCRRACRGCDTSDCLPVLHLIELLGSALRQSPAAHRAAPSAPGALTCHHTFGGWGTLVNPTGLALCPKTGRVVVVHDGRRRVKIFDSGGGCAHQFGEKGDAAQDIRYPVDVTITNDCHVVVTDAGDRSIKVFDFFGQIKLVIGGQFSLPWGVETTPQNGIVVTDAEAGSLHLLDVDFAEGVLRRTERLQAHLCNPRGVAVSWLTGAIAVLEHPLALGTGVCSTRVKVFSSSMQLVGQVDTFGLSLYFPSKITASAVTFDHQGNVIVADTSGPAILCLGKPEEFPVPKPMVTHGLSHPVALTFTKENSLLVLDTASHSIKVYKVDWG", "notes": "malin; source: yeast two-hybrid fusion (S. cerevisiae, pACT2)"}, "B2": {"name": "protein targeting to glycogen (Gal4 activation domain fusion) (natural protein, UniProt Q9UQK1 1-317, looked up)", "chain": "MSCTRMIQVLDPRPLTSSVMPVDVAMRLCLAHSPPVKSFLGPYDEFQRRHFVNKLKPLKSCLNIKHKAKSQNDWKCSHNQAKKRVVFADSKGLSLTAIHVFSDLPEEPAWDLQFDLLDLNDISSALKHHEEKNLILDFPQPSTDYLSFRSHFQKNFVCLENCSLQERTVTGTVKVKNVSFEKKVQIRITFDSWKNYTDVDCVYMKNVYGGTDSDTFSFAIDLPPVIPTEQKIEFCISYHANGQVFWDNNDGQNYRIVHVQWKPDGVQTQMAPQDCAFHQTSPKTELESTIFGSPRLASGLFPEWQSWGRMENLASYR", "notes": "protein targeting to glycogen (PTG); also called PTG; source: yeast two-hybrid fusion (S. cerevisiae, pACT2)"}},
  "target": "T1, laforin C266S (LexA fusion) (human, UniProt O95278 1-331, C266S)",
  "T1 construct": "laforin, glycogen phosphatase encoded by EPM2A, catalytic cysteine mutated to serine; in mouse laforin the same change is C265S; also called LCS; laforin C/S; source: yeast two-hybrid fusion (S. cerevisiae, pEG202)",
  "T1 sequence (looked up)": "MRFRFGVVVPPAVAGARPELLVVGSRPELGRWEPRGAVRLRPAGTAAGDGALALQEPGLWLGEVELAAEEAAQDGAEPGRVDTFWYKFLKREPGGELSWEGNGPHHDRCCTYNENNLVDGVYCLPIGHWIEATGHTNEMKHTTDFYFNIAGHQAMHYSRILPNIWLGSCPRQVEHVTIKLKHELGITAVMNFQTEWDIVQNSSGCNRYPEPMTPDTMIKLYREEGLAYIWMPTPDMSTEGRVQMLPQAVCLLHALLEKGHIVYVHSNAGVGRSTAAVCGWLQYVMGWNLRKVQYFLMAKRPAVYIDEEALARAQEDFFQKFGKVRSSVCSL",
  "assay": "two-hybrid; LexA-laforin (pEG202) with Gal4 activation domain-malin or -PTG (pACT2) in S. cerevisiae; beta-galactosidase activity in yeast cell extract, in Miller Units",
  "settings": "partners not purified",
  "data": [
    {"binder": "B1", "values": [
      {"measurement": "fold signal against WT laforin", "result": "~2", "unit": "fold"}
    ]},
    {"binder": "B2", "values": [
      {"measurement": "fold signal against WT laforin", "result": "~2", "unit": "fold"}
    ]}
  ]
}
